# Substitutions are numbered along the chain they refer to.
# T1: Cynomolgus TCR(AEA41865/AEA41866)-zipper protein (cynomolgus monkey)
# T1 construct: also called cyTCR-zipper protein; cynoTCR zipper
# T1 TCR alpha: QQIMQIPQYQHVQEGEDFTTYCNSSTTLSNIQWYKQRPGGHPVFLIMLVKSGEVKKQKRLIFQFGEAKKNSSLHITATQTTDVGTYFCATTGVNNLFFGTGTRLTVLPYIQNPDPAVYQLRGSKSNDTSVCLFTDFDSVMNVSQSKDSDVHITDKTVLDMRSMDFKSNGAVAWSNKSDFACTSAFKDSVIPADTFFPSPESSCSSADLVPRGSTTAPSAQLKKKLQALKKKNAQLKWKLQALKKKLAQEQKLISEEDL
# T1 TCR beta: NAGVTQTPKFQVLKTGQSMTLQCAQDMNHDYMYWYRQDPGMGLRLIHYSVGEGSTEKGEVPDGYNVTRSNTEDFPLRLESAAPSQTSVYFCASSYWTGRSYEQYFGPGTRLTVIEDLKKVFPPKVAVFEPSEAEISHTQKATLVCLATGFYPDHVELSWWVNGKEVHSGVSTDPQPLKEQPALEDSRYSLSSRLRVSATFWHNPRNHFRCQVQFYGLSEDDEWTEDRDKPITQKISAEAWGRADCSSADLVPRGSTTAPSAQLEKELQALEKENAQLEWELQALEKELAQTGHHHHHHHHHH
# T2: Human T cell receptor on human primary T cells (human, UniProt P01848 1-140; P01850 1-176)
# T2 construct: whole, on cells
# T2 TCR alpha (looked up): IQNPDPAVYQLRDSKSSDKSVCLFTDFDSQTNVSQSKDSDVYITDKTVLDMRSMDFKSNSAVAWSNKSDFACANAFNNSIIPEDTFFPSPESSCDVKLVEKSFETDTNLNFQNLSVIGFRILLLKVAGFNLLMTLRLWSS
# T2 TCR beta (looked up): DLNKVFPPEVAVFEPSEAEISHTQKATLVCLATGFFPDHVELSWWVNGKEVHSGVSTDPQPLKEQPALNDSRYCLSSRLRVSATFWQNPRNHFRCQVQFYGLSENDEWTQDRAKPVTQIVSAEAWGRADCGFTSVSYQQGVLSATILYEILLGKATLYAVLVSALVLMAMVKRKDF
# B1: T017000302 (VHH)
# VHH: EVQLVESGGGVVQPGGSLRLSCVASGDVHKINFLGWYRQAPGKEREKVAHISIGDQTDYADSAKGRFTISRDESKNMVYLQMNSLRPEDTALYFCRAFSRIYPYTYWGQGTLVTVSS
# B2: T017000312 (VHH)
# VHH: B1 VHH with F98L, T105D
# B3: T017000294 (VHH)
# VHH: B1 VHH with T105D, Y106W
# B4: T017000278 (VHH)
# VHH: B1 VHH with T105S
# B5: T017000291 (VHH)
# VHH: B1 VHH with Y102W, T105D
# B6: T017000290 (VHH)
# VHH: B1 VHH with R100K, T105D
# B7: T017000301 (VHH)
# VHH: B1 VHH with T105A
# B8: T017000287 (VHH)
# VHH: B1 VHH with T105Q
# B9: T017000281 (VHH)
# VHH: B1 VHH with F98M, T105D
# B10: T017000285 (VHH)
# VHH: B1 VHH with T105L
# B11: T017000283 (VHH)
# VHH: B1 VHH with R100S, T105D
# B12: T017000238 (VHH)
# VHH: B1 VHH with Q56E, T105D
# B13: T017000258 (VHH)
# VHH: B1 VHH with D55E, T105D
# B14: T017000231 (VHH)
# VHH: B1 VHH with H50V, T105D
# B15: T017000254 (VHH)
# VHH: B1 VHH with Q56R, T105D
# B16: T017000245 (VHH)
# VHH: B1 VHH with G54A, T105D
# B17: T017000235 (VHH)
# VHH: B1 VHH with Q56H, T105D
# B18: T017000223 (VHH)
# VHH: B1 VHH with T57A, T105D
# B19: T017000233 (VHH)
# VHH: B1 VHH with T57S, T105D
# B20: T017000232 (VHH)
# VHH: B1 VHH with T57V, T105D
# B21: T017000249 (VHH)
# VHH: B1 VHH with Q56V, T105D
# B22: T017000241 (VHH)
# VHH: B1 VHH with D58N, T105D
# B23: T017000234 (VHH)
# VHH: B1 VHH with H50M, T105D
# B24: T017000628 (bispecific antibody)
# chain: DVQLVESGGGVVQPGGSLRLSCVASYDVHKINFYGWYRQAPGKEREKVAHISIGDQTDYADSAKGRFTISRDESKNTVYLQMNSLRPEDTALYYCRALSKIWPYDYWGQGTLVTVSSGGGGSGGGGSGGGGSGGGGSGGGGSGGGGSGGGGSEVQLVESGGGLVQAGGSLRLSCAASGITSKINDMGWYRQTPGNYREWVASITATGTTNYRDSVKGRFTISRDNAKSTVYLQMNSLKPEDTTVYYCNTFPPISNFWGQGTLVTVSSA
# B25: T017000161 (VHH)
# VHH: B1 VHH with D27E, T105D
# B26: T017000176 (VHH)
# VHH: B1 VHH with I31L, T105D
# B27: T017000185 (VHH)
# VHH: B1 VHH with L34F, T105D
# B28: T017000163 (VHH)
# VHH: B1 VHH with K30Q, T105D
# notes: also called T017000745
# B29: T017000179 (VHH)
# VHH: B1 VHH with G35T, T105D
# B30: T017000166 (VHH)
# VHH: B1 VHH with L34Y, T105D
# B31: T017000188 (VHH)
# VHH: B1 VHH with D27A, T105D
# B32: T017000208 (VHH)
# VHH: B1 VHH with G26Y, T105D
# B33: T017000174 (VHH)
# VHH: B1 VHH with G26W, T105D
# B34: T017000200 (VHH)
# VHH: B1 VHH with G35R, T105D
# B35: T017000173 (VHH)
# VHH: B1 VHH with F33V, T105D
# B36: T017000177 (VHH)
# VHH: B1 VHH with D27S, T105D
# B37: T017000180 (VHH)
# VHH: B1 VHH with G26Q, T105D
# B38: T017000164 (VHH)
# VHH: B1 VHH with D27Y, T105D
# B39: T017000170 (VHH)
# VHH: B1 VHH with F33Y, T105D
# B40: T017000190 (VHH)
# VHH: B1 VHH with G35S, T105D
# B41: T017000196 (VHH)
# VHH: B1 VHH with N32F, T105D
# B42: T017000638 (VHH, not shown: small tags and cut ends)
# VHH: B1 VHH with G26W, L34Y, G35T, M77T, F94Y, F98L, Y102W, T105D
# B43: T017000682 (VHH, not shown: small tags and cut ends)
# VHH: B1 VHH with D27A, L34Y, M77T, F94Y, F98L, Y102W, T105D
# B44: T017000690 (VHH, not shown: small tags and cut ends)
# VHH: B1 VHH with G26W, D27E, L34Y, M77T, F94Y, F98L, Y102W, T105D
# B45: T017000686 (VHH, not shown: small tags and cut ends)
# VHH: B1 VHH with D27S, L34Y, M77T, F94Y, F98L, Y102W, T105D
# Molecular target: T1, Cynomolgus …
# Experiment: SPR ProteOn off-rate screen
# Source text: (§1) Unique ISVD clones, i.e. clones with a unique sequence, were subsequently selected and screened to determine their off-rate. To this purpose, the ISVD containing periplasmic extracts were screened on huTCR-zipper and cyTCR-zipper protein by SPR on a ProteOn XPR36 instrument. The zipper proteins were immobilized on a GLC sensor chip (between 4300 and 5100RU) via amine coupling chemistry, using EDC/sulfo-NHS for activation of the carboxyl groups on the chip surface (running buffer: HBS-EP+, pH7.4). Periplasmic extracts were injected at 1/10 dilution for 2 min (at a flow rate of 45 μL/min) and dissociation was followed for 900 s. A pulse of 100 s of 3 M MgCl2 at 45 μL/min was used for regeneration. […] Processed sensorgrams were fitted with the Langmuir model (1:1 interaction) using ProteOn Manager 3.1.0 (Version 3.1.0.6) software.
# For % Lysis, T cell mediated MOLM-13 cell killing, human primary T cells, E:T 10:1 in this document: test concentration or dose not given here.
row,koff,Binder
1,0.0148 s⁻¹,B1
2,0.0087 s⁻¹,B2
3,0.0151 s⁻¹,B3
4,0.0162 s⁻¹,B4
5,0.00672 s⁻¹,B5
6,0.00171 s⁻¹,B6
7,0.0178 s⁻¹,B7
8,0.0121 s⁻¹,B8
9,0.00555 s⁻¹,B9
10,0.0216 s⁻¹,B10
11,0.00559 s⁻¹,B11

# Molecular target: T1, Cynomolgus …
# Experiment: SPR ProteOn off-rate screen
# Remark: another data set of the same source
# Source text: as §1
row,koff,Binder
1,0.00957 s⁻¹,B12
2,0.0107 s⁻¹,B13
3,0.00867 s⁻¹,B14
4,0.0118 s⁻¹,B15
5,0.00936 s⁻¹,B16
6,0.011 s⁻¹,B17
7,0.0109 s⁻¹,B18
8,0.0102 s⁻¹,B19
9,0.00895 s⁻¹,B20
10,0.00939 s⁻¹,B21
11,0.0167 s⁻¹,B22
12,0.0118 s⁻¹,B23

# Molecular target: Cynomolgus T cell receptor on cynomolgus primary T cells (cynomolgus monkey); as to % Lysis, T cell mediated MOLM-13 cell killing, cynomolgus primary T cells, E:T 10:1: test concentration or dose not given here
# Experiment: cell-based or functional assay
Binder,"% Lysis, T cell mediated MOLM-13 cell killing, cynomolgus primary T cells, E:T 10:1","EC50 (M), T cell mediated MOLM-13 cell killing, cynomolgus primary T cells, E:T 10:1"
B24,40%,2e-11 M

# Molecular target: T1, Cynomolgus …
# Experiment: SPR ProteOn off-rate screen
# Remark: another data set of the same source
# Source text: as §1
row,koff,Binder
1,0.00624 s⁻¹,B25
2,0.00791 s⁻¹,B26
3,0.0114 s⁻¹,B27
4,0.00642 s⁻¹,B28
5,0.00775 s⁻¹,B29
6,0.00825 s⁻¹,B30
7,0.00389 s⁻¹,B31
8,0.0147 s⁻¹,B32
9,0.00791 s⁻¹,B33
10,0.058 s⁻¹,B34
11,0.00903 s⁻¹,B35
12,0.00325 s⁻¹,B36
13,0.00998 s⁻¹,B37
14,0.00412 s⁻¹,B38
15,0.00806 s⁻¹,B39
16,0.0107 s⁻¹,B40
17,0.00419 s⁻¹,B41

# Molecular target: T1, Cynomolgus …
# Experiment: SPR ProteOn off-rate screen
# Remark: another data set of the same source
# Source text: as §1
row,koff,Binder
1,0.00701 s⁻¹,B28

# Molecular target: T2, Human T cell receptor on human primary …
# Experiment: flow cytometry, human primary T cells
# Procedure: The ISVD variants were characterized for binding to CHO-K1 huTCR(2XN9)/huCD3 or to human and cynomolgus primary T cells. […] Next, cells were washed 3 times with FACS buffer and incubated with 1 μg/ml ANTI-FLAG® M2 Ab (Sigma, F1804) and washed again. […] Subsequently, cells were resuspended in FACS buffer supplemented with 5 nM TO-PRO®-3 Iodide to distinguish live from dead cells, which are removed during the gating procedure. Cells were analyzed using a FACS Array flow cytometer (BD Biosciences) and Flowing Software. First a P1 population which represented more than 80% of the total cell population was selected based on FSC-SSC distribution. In this gate, 10000 cells were counted during acquisition. From this population the TO-PRO®-3+cells (dead cells) were excluded and the mean fluorescence intensity (MFI) PE value was calculated.
row,EC50,Binder
1,66 nM,B42
2,58 nM,B43
3,66 nM,B44
4,55 nM,B45

# Molecular target: T2, Human T cell receptor on human primary …
# Experiment: cell-based or functional assay
Binder,"% Lysis, T cell mediated MOLM-13 cell killing, human primary T cells, E:T 10:1","EC50 (M), T cell mediated MOLM-13 cell killing, human primary T cells, E:T 10:1"
B24,39%,1.6e-10 M

# Reference: patent publication US20240092919A1 (Ablynx, published 2024)
